The text below walks through data of US7049400.

In the assay the target is MD9 (mammalian version of D9 mutant, EGFP-DEVD) (Aequorea victoria (Water jellyfish) (Mesonema victoria)) [GFP: P42212]. Put plainly: cell-based or functional assay.

“activated caspase-3 in HeLa cells induced to apoptosis by TNFα and cycloheximide (from UniProt P42574 29-277) (enzyme)” gave a decrease in relative fluorescence intensity of mutant GFP in comparison to wild type GFP of 50%.
